Experimental data from patent publication US20250042994A1 (HAINAN SIMCERE ZAIMING PHARMACEUTICAL, published 2025).

T1: human CD19 exon1-3-His tag protein (human, UniProt P15391 20-186, limits assumed)
T1 construct: membrane-distal part of the extracellular region, made in HEK293E cells; not shown: His tag
T1 sequence (looked up): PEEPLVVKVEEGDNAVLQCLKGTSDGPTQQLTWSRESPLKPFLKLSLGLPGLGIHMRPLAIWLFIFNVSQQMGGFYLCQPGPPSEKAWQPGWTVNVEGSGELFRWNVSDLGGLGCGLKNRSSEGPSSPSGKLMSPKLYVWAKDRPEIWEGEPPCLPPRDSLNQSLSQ

T2: Human CD19-his protein (human, UniProt P15391 20-291)
T2 construct: bought protein; also called recombinant human CD19-His; CD19 full-length protein; not shown: His tag
T2 sequence (looked up): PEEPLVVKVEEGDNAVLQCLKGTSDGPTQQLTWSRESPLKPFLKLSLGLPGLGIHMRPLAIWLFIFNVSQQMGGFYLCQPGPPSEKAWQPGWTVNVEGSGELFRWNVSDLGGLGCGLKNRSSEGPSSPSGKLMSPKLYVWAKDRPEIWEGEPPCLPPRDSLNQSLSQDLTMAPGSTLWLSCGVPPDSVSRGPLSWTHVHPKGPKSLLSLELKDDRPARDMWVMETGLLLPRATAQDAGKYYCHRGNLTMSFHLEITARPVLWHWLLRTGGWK


What was measured:
[1] = target: T1, human CD19 exon1-3-His tag protein; assay: ELISA on coated human CD19 exon 1-3-His
Human CD19-his protein = target: T2, Human CD19-his protein; assay: SPR Biacore, Ab captured on Protein A, CD19-His analyte
How it was run: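 Apparent KD came from a Langmuir 1:1 fit of double-referenced sensorgrams. Recombinant human CD19-His analyte (top 200 nM, 1:1 serial dilution, 5 concentrations) flowed over Protein A-captured antibody for 240 s at 30 μl/min, then buffer for up to 600 s. Running buffer HBS-EP+ at 25 °C; regeneration with 10 mM glycine pH 1.5.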

| Binder | binding result [1] | Kd (Human CD19-his protein) | koff (Human CD19-his protein) | kon (Human CD19-his protein) |
| --- | --- | --- | --- | --- |
| F4.22.6 (antibody, human IgG1, V domains shown, human-murine chimeric antibody, human IgG1 constant) VH: QVQLQQSGPELVKPGASVKISCKASGYAFSSFWMNWVKQRPGQGLEWIGRIYPGDGDTNYNGKFKGKATLTADKSSTTAYMHLSSLTSVDSAVYFCTRSVITAVVDWYFDVWGAGTTVTVSS VL: QIVLSQSPAILSASPGEKVTLTCRASSSVNFMHWYQQKPGSSPKPWIYATSNLASGAPARFSGSGSGTSYSLTISRVEAEDAAAYYCQQWSSYPIFTFGSGTKLEIK | no binding (tested: 100 nM) | 5.94 nM | 0.00147 s⁻¹ | 248000 M⁻¹ s⁻¹ |
| F4.15.9 (antibody, human IgG1, V domains shown, human-murine chimeric antibody, human IgG1 constant) VH: QVQLQQSGPELVKPGASVKISCKASGYAFSSSWMNWLKQRPGQGLEWIGRIYPGDGDTNYNGKFKGKATLTADESSSTAYMQLSSLTSVDSAVYFCARGITTIITIAWFASWGQGTLVTVSA VL: QIVLSQSPTILSASPGEKVTMTCRASSSVSYMHWYQQKPGSSPKPWIYATSNLASGVPPRFSGSGSGTSYSLTISRVGAEDAATYYCQQWSSDPWTFGGGTKLEIK | no binding (tested: 100 nM) | 2.72 nM | 0.000949 s⁻¹ | 348000 M⁻¹ s⁻¹ |
| F4.35.5 (antibody, human IgG1, V domains shown, human-murine chimeric antibody, human IgG1 constant) VH: EIQLQQSGPELVKPGASVKVSCKASGYAFTSYNMYWVKQSHGKSLEWIGYIDPYNGDTRYNQKFKGKATLTVDKSSSTAYMHLNSLTSEDSAVYYCTRSGTGRDYWGQGTTLTVSS VL: QIVLTQSPAIMSASPGEKVTMTCSASSSISYMFWFQQKPGSSPRLLIYDTSSLASGVPVRFSGSGSGTSYTLTISRMEAEDAATYYCQQWSNYPYTFGGGTKLEMK | no binding (tested: 100 nM) | 15.3 nM | 0.00351 s⁻¹ | 229000 M⁻¹ s⁻¹ |
| F4.21.2 (antibody, human IgG1, V domains shown, human-murine chimeric antibody, human IgG1 constant) VH: QVQLKQSGPGLVQPSQSLSITCTVSGFSLSTYGVHWVRQSPGRGLEWLGVIWIGGTTDYNAAFISRLTISKDNSRGQVFFKMDSLQANDTAIYYCARKGYYKYDGGYYYAMDYWGQGTSVTVSS VL: DIQMTQSSSYLSVSLGGRVTITCKASDHINNWLAWYQQKPGNAPWLLISGATSLETGVPSRFSGSGSGKDYTLSISSLQTEDVATYYCQQYWSTPLTFGAGTKLELK | no binding (tested: 100 nM) | 0.904 nM | 0.000167 s⁻¹ | 185000 M⁻¹ s⁻¹ |
| F4.33.12 (antibody, human IgG1, V domains shown, human-murine chimeric antibody, human IgG1 constant) VH: QVQLQQSGAELVRPGSSVKISCKGSGYAFSSYWMNWVKQRPGQGLEWIGQIYPGDGDTNYNGKFKGKATLTADKSSSTAYMQLSSLTSEDSAVYFCARAGFYYGSDSSMDYWGQGTSVTVSS VL: not shown | no binding (tested: 100 nM) | 3.45 nM | 0.000452 s⁻¹ | 131000 M⁻¹ s⁻¹ |
| F4.58.6 (antibody, human IgG1, V domains shown, human-murine chimeric antibody, human IgG1 constant) VH: QVQLQQPGAELVKPGASVKLSCKASGYTFTSYWMHWVKQRPGQGLEWIGEIDPSDSYSNYNQKFKGKATLTVDKSSSTAYMQLSSLTSEDSAVYYCARSNYGSSYGYFDVWGAGTTVTVSS VL: QIVLTQSPAIMSASPGEKVTMTCSVSSSLSYMHWYQQKPGTSPKRWIYDTSKLASGVPARFSGSGSGTSYSLTISSMEAEDAATYYCHQRSSYPTFGGGTKLEIK | no binding (tested: 100 nM) | 13.9 nM | 0.002 s⁻¹ | 143000 M⁻¹ s⁻¹ |
| F3.133.14 (antibody, human IgG1, V domains shown, human-murine chimeric antibody, human IgG1 constant) VH: QVQLQQPGAELVMPGASVKLSCKASGYTFTNYWMHWVKQRPGQGLEWIGEIDPSDYYANYNQKFKGKATLTVDKSSSTAYMQLSSLTSEDSAVYYCARSHYYANSYNYWGQGTTLTVSS VL: EIELTQSPTTMAASPGEKITITCSASSSISSDYLHWYQQKPGFSPKLLIYRTSNLASGLPARFSGSGSGTSYSLTIGTMEAEDVATYYCQQGSSVPRMLTFGAGTKLELK | no binding (tested: 100 nM) | 0.974 nM | 8.84e-05 s⁻¹ | 90800 M⁻¹ s⁻¹ |
| F4.48.12 (antibody, human IgG1, V domains shown, human-murine chimeric antibody, human IgG1 constant) VH: QMQLKESGPGLVAPSQSLSITCTVSGFSLTDYGVSWIRQPPGKGLEWLGVIWGSGSTFYNSALTSRLSISKDNSKSQVFLKMNSLQTADTAMYFCAKHHYYGGSFAMDYWGQGTSVTVSS VL: DIQMTQASSSLSASLGDRVTISCKTSQDISNYLNWYQQKPDGTFKLLIHYTSRLHSGVPSRFSGSGSGSDYSLTISNLEREDIATYFCQQGNSLPYTFGGGTKLEMK | no binding (tested: 100 nM) | 0.487 nM | 0.000129 s⁻¹ | 264000 M⁻¹ s⁻¹ |
| F4.78.1 (antibody, human IgG1, V domains shown, human-murine chimeric antibody, human IgG1 constant) VH: QVQIQQSGAELARPGASVKLSCKASGYTFTNYWMQWIKQRPGQGLEWIGAIYPGDGDTRYTQKFKGKATLTADKSSSTAYMQLSSLASEDSAVYYCAREEVWSPYGMDYWGQGTSVTVSS VL: QIVLTQSPAIMSASPGEKVTITCSASSSVSYMGWFQQKPGTSPKLWIYSTSNLASGVPARFSGSGSGTSYSLTISRMEAEDAATYYCQQRSIYPLTFGAGTKLELK | no binding (tested: 100 nM) | 0.926 nM | 0.00017 s⁻¹ | 184000 M⁻¹ s⁻¹ |
| F4.37.6 (antibody, human IgG1, V domains shown, human-murine chimeric antibody, human IgG1 constant) VH: QVQLQQSGAELARPGASVKLSCKASGYTFTSFWMQWLKQRPGQGLEWIGTIYPGDGDTRYTQKFKGKATLTADKSSNTAYMQLSSLASEDSAVYYCARGALSNYGGFAYWGQGTLVTVSA VL: NIVLTQSPASLAVSLGQRATISCRASESVDSYGHSFMHWYQQKPGQPPKLLIYLASNLESGVPARFSGSGSRTDFTLTIDPVEADDAATYYCQQNNEDPWTFGGGTKLEIK | no binding (tested: 100 nM) | 9.11 nM | 0.00327 s⁻¹ | 359000 M⁻¹ s⁻¹ |
| F4.18.13 (antibody, human IgG1, V domains shown, human-murine chimeric antibody, human IgG1 constant) VH: QVQLQQSGPELVKPGASVKISCKASGYAFSSFWMNWVKQRPGEGLEWIGRIYPGDGDTNYNGKFKGKATLTADDSSSTAYMQLSSLTSVDSAVYFCAREVIAAVVTTDFDYWGQGTTLTVSS VL: DIQMTQTTSSLSASLGDRVTISCRTSQDISNYLNWYLQKPDGTVKLLIYYTSGLHSGVPSRFSGSGSGTDYSLTISNLEPEDIATYFCQQGKTLPYTFGGGTKLEIK | no binding (tested: 100 nM) | 0.362 nM | 0.000171 s⁻¹ | 472000 M⁻¹ s⁻¹ |
| F4.41.1 (antibody, human IgG1, V domains shown, human-murine chimeric antibody, human IgG1 constant) VH: QVQLQQSGAELVRPGTSVKVSCKASGYAFTNYLIEWVKQRPGQGLEWIGVINPGSGDTLYNEKFKGKATLTADKSSTTAYMQLSGLTSDVSAIYFCARSPPITTIVADYFDYWGQGTTLTVSS VL: DIQMTQTTSSLSASLGDRVTISCRASQDISNYLNWYQQKPDGTVKLLIYYTSRLHSGVPSRFSGSGSGADYSLTISNLEQEDIATYFCQQGKTLPYTFGGGTKLEIK | no binding (tested: 100 nM) | 13.4 nM | 0.00239 s⁻¹ | 179000 M⁻¹ s⁻¹ |
| F4.49.11 (antibody, human IgG1, V domains shown, human-murine chimeric antibody, human IgG1 constant) VH: DVQLRASGPGLVKPSQSLSLTCSVTGYSITSGYYWNWIRQFPGNKLEWMGCISYDGTNNYNPSLKNRISFTRDTSKNQFFLNLNSVTTEDSATYYCARRVYYRYDGVVDYWGQGTSVTVSS VL: ENVLTQSPAIMSASPGEKVTMTCSASSSVSYIHWYQQKSSTAPKLWIYDTSKLASGVPGRFSGSRSRNSYSLTISSMEAEDVATYYCFQGSGYPLTFGSGTKLEIK | no binding (tested: 100 nM) | 17.6 nM | 0.00128 s⁻¹ | 73000 M⁻¹ s⁻¹ |
